Values quoted from earlier work, collected in patent US20030158199A1, “Novel compounds for inhibition of Tie-2” (KYLIX, B.V., priority 2002, published 2003).

Test system: tumor metastasis
Conditions: delivered at the time of surgical excision of primary tumors, mouse model; cited from earlier work

B1: Ad-ExTek: a soluble adenoviral expressed extracellular domain of Tie-2 (protein, UniProt Q02763 23-748, looked up)
extracellular domain: AMDLILINSLPLVSDAETSLTCIASGWRPHEPITIGRDFEALMNQHQDPLEVTQDVTREWAKKVVWKREKASKINGAYFCEGRVRGEAIRIRTMKMRQQASFLPATLTMTVDKGDNVNISFKKVLIKEEDAVIYKNGSFIHSVPRHEVPDILEVHLPHAQPQDAGVYSARYIGGNLFTSAFTRLIVRRCEAQKWGPECNHLCTACMNNGVCHEDTGECICPPGFMGRTCEKACELHTFGRTCKERCSGQEGCKSYVFCLPDPYGCSCATGWKGLQCNEACHPGFYGPDCKLRCSCNNGEMCDRFQGCLCSPGWQGLQCEREGIQRMTPKIVDLPDHIEVNSGKFNPICKASGWPLPTNEEMTLVKPDGTVLHPKDFNHTDHFSVAIFTIHRILPPDSGVWVCSVNTVAGMVEKPFNISVKVLPKPLNAPNVIDTGHNFAVINISSEPYFGDGPIKSKKLLYKPVNHYEAWQHIQVTNEIVTLNYLEPRTEYELCVQLVRRGEGGEGHPGPVRRFTTASIGLPPPRGLNLLPKSQTTLNLTWQPIFPSSEDDFYVEVERRSVQKSDQQNIKVPGNLTSVLLNNLHPREQYVVRARVNTKAQGEWSEDLTAWTLSDILPPQPENIKISNITHSSAVISWTILDGYSISSITIRYKVQGKNEDQHVDVKIKNATITQYQLKGLEPETAYQVDIFAENNIGSSNPAFSHELVTLPESQAPADLGGGKMLL
modifications: extracellular domain
tumor metastasis: inhibited tumor metastasis
